Source: the supplement of paper PMC6757056
± gives the standard deviation of the averaged measurements.

B1: library; a variant is named by its letters at N, in order (parent)
chain: GCUGUCACCGGAAUACCAGCAUCGUCUUGAUGCCCUUGGAAGUCCGGUCUGAUGAGUCCNNNNNGGACGAAACAGC

Columns and labels:
theophylline [1] = variants of: B1; assay: FACS-Seq fitted mean relative fluorescence mCherry/BFP without ligand (log10 relative fluorescence); higher = higher reporter protein expression; settings: HEK293T, ligand present: no
Outline: (§1)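 Enriched HEK293T cells carrying, by lentivirus, an mCherry reporter with the ribozyme switch and an EF1α-BFP marker spent 48 h with or without ligand and were sorted into 6 bins by mCherry/BFP. MiSeq sequencing of PCR-amplified bin genomic DNA gave bin counts. Fluorescence was calculated as the fitted normal mean of those counts. Counts were binned on log10(mCherry/BFP), and means were scaled to five spiked-in control ribozymes.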

theophylline [2] = variants of: B1; assay: normalized RNA/DNA level with ligand (relative to sTRSVctl = 100) (log10 (% of sTRSVctl)); higher = less ribozyme self-cleavage, higher mRNA level; settings: ligand concentration (+) RNA-Seq: 5 mM, HEK293T, reporter: mCherry (pCS4076), ligand present: yes
Outline: (§2)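 Total RNA, extracted with EDTA 72 h after HEK293T cells were transfected with 4 µg per 6-well well of reporter-linked ribozyme switch library plasmids, was reverse-transcribed, amplified, barcoded and sequenced. Ligand, if used, was added 1 h before transfection. RNA level was derived from RNA reads divided by DNA reads and normalized to a spiked-in non-cleaving sequence or to the top sequences. This was multiplied by 100 and log10-transformed, with the top set of 25 sequences and a ≥100 DNA read minimum.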

theophylline [3] = variants of: B1; assay: normalized RNA/DNA level without ligand (relative to sTRSVctl = 100) (log10 (% of sTRSVctl)); higher = less ribozyme self-cleavage, higher mRNA level; settings: HEK293T, reporter: mCherry (pCS4076), ligand present: no
Outline: as §2

theophylline [4] = variants of: B1; assay: FACS-Seq fitted mean relative fluorescence mCherry/BFP with ligand (log10 relative fluorescence); ligand concentration (+) FACS-Seq: 1 mM; higher = higher reporter protein expression; settings: HEK293T, ligand present: yes
Outline: as §1

| Variant | FACS-Seq fitted mean (log10) (theophylline [1]) | normalized RNA/DNA level with ligand (log10) (theophylline [2]) | normalized RNA/DNA level without ligand (log10) (theophylline [3]) | FACS-Seq fitted mean (log10) (theophylline [4]) |
| --- | --- | --- | --- | --- |
| UUAAG | 0.769 ± 0.074 | 2.02 ± 0.033 | 1.855 ± 0.012 | 0.829 ± 0.086 |
| UUAAU | 1.13 ± 0.062 | 1.9977 ± 0.0018 | 1.956 ± 0.013 | 1.07 ± 0.036 |
| ACCAG | 0.9579 ± 0.0021 | 1.93 ± 0.028 | 1.83 ± 0.059 | 1.02 ± 0.047 |
| ACCAU | 0.574 ± 0.037 | 1.993 ± 0.011 | 1.86 ± 0.02 | 0.605 ± 0.068 |
| UAUUU | 0.892 ± 0.098 | 1.995 ± 0.0037 | 1.94 ± 0.032 | 0.906 ± 0.048 |
| UGUCU | 0.747 ± 0.19 | 2.02 ± 0.035 | 1.988 ± 0.0094 | 0.783 ± 0.043 |
| ACAGG | 0.315 ± 0.055 | 2 ± 0.057 | 1.78 ± 0.045 | 0.357 ± 0.0097 |
| ACAGA | 0.413 ± 0.11 | 1.96 ± 0.064 | 1.54 ± 0.035 | 0.638 ± 0.062 |
| UAAGU | 0.651 ± 0.24 | 2.03 ± 0.044 | 1.86 ± 0.088 | 0.751 ± 0.013 |
| ACGGA | 0.425 ± 0.14 | 1.95 ± 0.02 | 1.66 ± 0.073 | 0.602 ± 0.1 |
| ACGGC | 1.25 ± 0.15 | 1.97 ± 0.059 | 1.97 ± 0.067 | 1.17 ± 0.014 |
| CGAGA | 0.788 ± 0.0071 | 1.93 ± 0.022 | 1.58 ± 0.18 | 0.841 ± 0.032 |
| ACGAU | 0.425 ± 0.067 | 2.06 ± 0.059 | 1.69 ± 0.15 | 0.552 ± 0.049 |
| ACGAC | 1.26 ± 0.14 | 1.981 ± 0.0072 | 1.834 ± 0.018 | 1.19 ± 0.2 |
| AGCCG | 0.757 ± 0.026 | 1.99 ± 0.14 | 1.93 ± 0.11 | 0.782 ± 0.054 |
| UAUCG | 1.02 ± 0.21 | 2.07 ± 0.028 | 2 ± 0.07 | 0.934 ± 0.064 |
| ACAAG | 0.857 ± 0.14 | 1.99 ± 0.033 | 1.81 ± 0.12 | 0.8889 ± 0.0072 |
| ACAAA | 0.425 ± 0.062 | 2 ± 0.045 | 1.44 ± 0.11 | 0.7048 ± 0.0042 |

| Variant | FACS-Seq fitted mean (log10) (theophylline [1]) | normalized RNA/DNA level with ligand (log10) (theophylline [2]) | normalized RNA/DNA level without ligand (log10) (theophylline [3]) | FACS-Seq fitted mean (log10) (theophylline [4]) |
| --- | --- | --- | --- | --- |
| UAGAG | 0.823 ± 0.13 | 1.94 ± 0.063 | 1.73 ± 0.093 | 0.842 ± 0.013 |
| UGGUU | 0.9379 ± 0.005 | 2.042 ± 0.011 | 1.846 ± 0.0051 | 1.01 ± 0.049 |
| AUUGA | 0.66 ± 0.051 | 1.99 ± 0.038 | 1.79 ± 0.08 | 0.85337 ± 0.00081 |
| ACGUU | 0.575 ± 0.11 | 2.05 ± 0.044 | 1.79 ± 0.042 | 0.657 ± 0.051 |
| AUUCA | 0.9176 ± 0.0013 | 2.04 ± 0.066 | 1.83 ± 0.15 | 0.971 ± 0.12 |
| CGGAC | 0.877 ± 0.081 | 1.93 ± 0.024 | 1.8 ± 0.087 | 0.793 ± 0.037 |
| CCAAU | 0.688 ± 0.1 | 1.95 ± 0.058 | 1.64 ± 0.14 | 0.7987 ± 0.0017 |
| CUUCC | 0.782 ± 0.05 | 2.02 ± 0.059 | 2.032 ± 0.0046 | 0.683 ± 0.091 |
| AUGUA | 0.696 ± 0.018 | 1.97 ± 0.11 | 1.77 ± 0.046 | 0.908 ± 0.042 |
| AAAAA | -0.362 ± 0.072 | 1.85 ± 0.075 | 1.11 ± 0.061 | 0.356 ± 0.066 |
| AAAAG | 0.487 ± 0.041 | 1.971 ± 0.00093 | 1.66 ± 0.028 | 0.638 ± 0.13 |
| AAAAU | 0.464 ± 0.031 | 2.02 ± 0.028 | 1.68 ± 0.028 | 0.572 ± 0.045 |
| CGGGC | 0.725 ± 0.09 | 1.94 ± 0.065 | 2.01 ± 0.0021 | 0.717 ± 0.016 |
| AAAUU | 0.984 ± 0.045 | 2.02 ± 0.1 | 1.82 ± 0.082 | 1.05 ± 0.06 |
| AAAUC | 0.4981 ± 0.0025 | 1.89 ± 0.034 | 1.9 ± 0.099 | 0.511 ± 0.021 |
| AUACG | 0.526 ± 0.063 | 2.0061 ± 0.0018 | 1.831 ± 0.0082 | 0.507 ± 0.02 |
| AUACA | 0.687 ± 0.07 | 1.98 ± 0.021 | 1.85 ± 0.12 | 0.796 ± 0.012 |
| GUUUG | 0.972 ± 0.24 | 1.96 ± 0.091 | 1.77 ± 0.058 | 0.929 ± 0.17 |
